Patent publication US20260049134A1 (UNIVERSITY OF FLORIDA RESEARCH FOUNDATION, published 2026)
Changes are numbered by the printed parent chain. Names may count otherwise. Values belong to the binder of their own block, whether it stands above or below them.

Assays:
[1] = biological target: T1, GARS, endogenous in H929 multiple myeloma cells (human, UniProt P41250 37-739, limits assumed); test: flow cytometry, H929 + GARS siRNA (siRNA against the putative target); None 0.2
T1 construct: Native protein pulled down from H929 lysates; also called Glycyl-tRNA synthetase; GlyRS
T1 sequence: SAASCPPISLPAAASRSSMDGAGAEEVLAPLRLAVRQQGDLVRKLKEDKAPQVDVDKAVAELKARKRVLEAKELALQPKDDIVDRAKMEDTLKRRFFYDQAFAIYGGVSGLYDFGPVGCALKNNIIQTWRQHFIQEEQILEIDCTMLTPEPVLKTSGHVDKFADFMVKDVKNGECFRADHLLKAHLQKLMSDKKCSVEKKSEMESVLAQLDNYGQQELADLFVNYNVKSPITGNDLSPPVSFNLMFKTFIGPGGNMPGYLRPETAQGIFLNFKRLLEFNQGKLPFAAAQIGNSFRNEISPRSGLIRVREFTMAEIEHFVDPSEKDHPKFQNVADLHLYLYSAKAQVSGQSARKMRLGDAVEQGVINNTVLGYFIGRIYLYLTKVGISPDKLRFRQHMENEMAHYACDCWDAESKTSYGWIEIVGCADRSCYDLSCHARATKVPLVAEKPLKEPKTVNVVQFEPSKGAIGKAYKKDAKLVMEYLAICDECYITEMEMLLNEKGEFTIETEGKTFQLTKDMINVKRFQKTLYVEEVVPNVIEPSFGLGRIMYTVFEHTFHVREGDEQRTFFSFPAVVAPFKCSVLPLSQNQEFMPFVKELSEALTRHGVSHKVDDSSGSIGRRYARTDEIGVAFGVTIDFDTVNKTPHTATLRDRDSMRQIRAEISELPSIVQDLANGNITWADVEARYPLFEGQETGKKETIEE

[2] = biological target: T1, GARS, endogenous in H929 multiple …; test: flow cytometry, H929 + CADM1 siRNA; None 0.89; surface target GARS putative
[3] = biological target: T1, GARS, endogenous in H929 multiple …; test: flow cytometry, H929 + NT Green siRNA; None 1.35; surface target GARS putative
[4] = biological target: T1, GARS, endogenous in H929 multiple …; test: flow cytometry, H929 + PTPRG siRNA; None 490; surface target GARS putative
IL13RA1 = biological target: T2, IL13RA1; test: ELISA on coated IL13RA1-Fc-His
T2 construct: coated protein in the ELISA; also called IL13RA1-Fc-His (R&D Systems)
T2 chain: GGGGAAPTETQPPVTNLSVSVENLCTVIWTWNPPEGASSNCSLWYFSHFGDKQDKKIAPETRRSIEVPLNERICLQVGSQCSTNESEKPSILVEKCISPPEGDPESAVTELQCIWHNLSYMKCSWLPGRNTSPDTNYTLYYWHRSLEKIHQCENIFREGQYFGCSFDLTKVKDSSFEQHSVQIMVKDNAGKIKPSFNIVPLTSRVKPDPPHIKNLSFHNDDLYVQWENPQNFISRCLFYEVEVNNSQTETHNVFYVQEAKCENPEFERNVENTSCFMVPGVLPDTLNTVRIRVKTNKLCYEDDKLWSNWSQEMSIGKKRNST
Method: Recombinant purified ECDs (50-150 ng) of each putative target protein were coated, incubated with 150 ng of the indicated primary antibody, and binding was detected using a peroxidase-conjugated anti-human Fab secondary antibody. Heatmap represents averages of technical triplicates. (8B) Target validation via siRNA knockdown. H929 cells were transfected with siRNA pools targeting the putative antibody targets ICAM1, CADM1, and PTPRG. Cells were then subjected to cognate IgG binding analysis via flow cytometry. (NT, non-targeting siRNA).
ELISA ELISA was conducted as described previously. Briefly, 50-150 ng of antigen was coated overnight in half-area 96-well plates at 4° C., blocked with 3% BSA at 37° C. for 1 h, and 150 ng of chimeric rabbit/human IgG1 was added, incubating for 2 h at 37° C. […] After incubating at 37° C. for 15 min-1 h (depending on intensity of controls), data were acquired using a SpectraMax M5 plate reader (Molecular Devices).

- Cells stained (%) [1]: 99.4%
- Cells stained (%) [2]: 99.8%
- Cells stained (%) [3]: 99.7%
- mAb binding (MFI) [4]: 630000
B1: HW-81 chimeric rabbit-human IgG1 LA/LA/PG (antibody, V domains shown)
VH: QKQLVESGGGLVTPGGTLTLTCTVSGFSLSSNGVSWVRQAPGKGLEYIGLIRSIGSTYYATWAKGRFTISKTSTTVDLKITSPTTEDTATYFCARGGYRNGFKLWGPGTLVTVSS
VL: QPVLTQSPSVSAALGASAKLTCTLSSAHKTYYIEWYQQQHPGKAPRYLMQLQSDGSYTKGTGVPDRFSGSSSGADRYLIISSVQAEDEADYICGVIDSAVYVFGGGTQLTVTG
notes: Fc-silenced (L234A/L235A/P329G) IgG1, lambda; Alexa Fluor 647-labeled in single-step flow cytometry; Cluster C-45
- binding result (IL13RA1): no binding (tested: 150 ng IgG1 per well)

- Cells stained (%) [1]: 99.9%
- Cells stained (%) [2]: 99.6%
- Cells stained (%) [3]: 99.7%
- mAb binding (MFI) [4]: 479000
B2: HW-56 chimeric rabbit-human IgG1 LA/LA/PG (antibody, V domains shown)
VH: QSVKESEGGLFKPTDTLTLTCTASGFTVSTNAVTWVRQAPGNGLEYIGTIGRSGSAYFASWAKRRSTLTRDINLNTVTLKMTSLTAADTATYFCVRGSPGYRTAISIWGPGTLVTISS
VL: AVMTQTPSSTSAAVEGTVTINCQASQSISNRLSWFQQKPGQPPKLLIYQASTLASGVPSRFKGSGSGTEFTLTISGVQREDAATYYCLGSYSSSDASFGGGTKLEIKR
notes: Fc-silenced (L234A/L235A/P329G) IgG1, kappa; Alexa Fluor 647-labeled in single-step flow cytometry; Cluster C-45

- Cells stained (%) [1]: 98.3%
- Cells stained (%) [2]: 98.5%
- Cells stained (%) [3]: 98.5%
- mAb binding (MFI) [4]: 41900
B3: HW-28 chimeric rabbit-human IgG1 LA/LA/PG (antibody, V domains shown)
VH: QKQLVESGGRLVTPGTPLTLTCTASGFSLSSNAMSWVRQAPGEGLQWIGTISSGGSTYYASWAKGRFTISKTSTTVTLKMTSLTTEDTATYFCARGADLHRLWGPGTLVTVSS
VL: SFVLTQPASVQVNLGQTVSLTCTGKPLSRSFASWYQQKPGQAPVLVIYRDTSRPSGVPDRFSGSSSGNTATLTISGAQAGDEADYYCATSDGSGSSYQYVFGGGTQLTVTG
notes: as for B1

- Cells stained (%) [1]: 98.5%
- Cells stained (%) [2]: 97%
- Cells stained (%) [3]: 97.9%
- mAb binding (MFI) [4]: 23200
B4: HW-45 chimeric rabbit-human IgG1 LA/LA/PG (antibody, V domains shown)
VH: QKQLVESGGRLVTPGTPLTLTCTVSGFSLSSYAMGWFRQAPGKGLEWIGIINSYGSTYYASWAKGRFTISKTSTTVDLKITSPTTEDTATYFCGRRIGSARFDPWGPGTLVTVSS
VL: B3 VL with G24A, K25D, P26T, F31Y, V46L, S52R, Q98R, Y99L
notes: Fc-silenced (L234A/L235A/P329G) IgG1, lambda; Alexa Fluor 647-labeled in single-step flow cytometry; Prototype of cluster C-45

- Cells stained (%) [1]: 99.1%
- Cells stained (%) [2]: 99%
- Cells stained (%) [3]: 99.1%
- mAb binding (MFI) [4]: 41600
B5: HW-16 chimeric rabbit-human IgG1 LA/LA/PG (antibody, V domains shown)
VH: QSLEESGGRLVTPGTPLTLTCTASGFSLSSYAMSWVRQAPGKGLEWIGTMPTGGGTYYASWAKGRFTISKTSTTVDLQITSPTTEDTATYFCAKHWNIWGPGTLVTISS
VL: DIVLTQTPSSTSTAVGDTVTINCRASQSIGRNLAWFQQKPGQPPKLLIYRASNLASGVPSRFKGSGSRTQFTLTISGVQREDAATYYCLGSYSSSDTAFGGGTELEILR
notes: as for B2

- Cells stained (%) [1]: 99%
- Cells stained (%) [2]: 89.3%
- Cells stained (%) [3]: 86.6%
- mAb binding (MFI) [4]: 13600
B6: HW-8 chimeric rabbit-human IgG1 LA/LA/PG (antibody, V domains shown)
VH: QSLEESGGRLVTPGTPLTLTCTVSGFSLSSYAMSWVRQAPGKGLEWIGAISTGGSTTYASWAKGRFTISKTSSTTVDLKMTSLTTEDTATYFCVRHFRLWGPGTLVTISS
VL: QVLTQTPSSVSAAVGGTVTIKCQASQSIGSALAWFQQKPGQRPKLLIYRASNLASGVPSRFKGSGSGTEFALTISGVQREDAATYYCLGGAAAVWAFGAGTNVEIKR
notes: as for B2
- binding result (IL13RA1): no binding (tested: 150 ng IgG1 per well)
